# Experimental data reported in the supplement of paper PMC10065799, “High-throughput profiling of sequence recognition by tyrosine kinases and SH2 domains using bacterial peptide display” (eLife, 2023).
# Assays:
# SHP2-C SH2 = assay: SH2 binding enrichment of the phosphorylated peptide, bacterial display (enrichment ratio); higher = better substrate or ligand; peptides without Tyr show the background
# Grb2 SH2 = Grb2 SH2 (UniProt P62993); assay: as above
# c-Src SH2 = assay: as above
# FGFR1 = FGFR1 (UniProt P11362); assay: phosphorylation enrichment, bacterial display (enrichment ratio); higher = better substrate or ligand; peptides without Tyr show the background
# Sequence of FGFR1 (P11362 whole entry, looked up): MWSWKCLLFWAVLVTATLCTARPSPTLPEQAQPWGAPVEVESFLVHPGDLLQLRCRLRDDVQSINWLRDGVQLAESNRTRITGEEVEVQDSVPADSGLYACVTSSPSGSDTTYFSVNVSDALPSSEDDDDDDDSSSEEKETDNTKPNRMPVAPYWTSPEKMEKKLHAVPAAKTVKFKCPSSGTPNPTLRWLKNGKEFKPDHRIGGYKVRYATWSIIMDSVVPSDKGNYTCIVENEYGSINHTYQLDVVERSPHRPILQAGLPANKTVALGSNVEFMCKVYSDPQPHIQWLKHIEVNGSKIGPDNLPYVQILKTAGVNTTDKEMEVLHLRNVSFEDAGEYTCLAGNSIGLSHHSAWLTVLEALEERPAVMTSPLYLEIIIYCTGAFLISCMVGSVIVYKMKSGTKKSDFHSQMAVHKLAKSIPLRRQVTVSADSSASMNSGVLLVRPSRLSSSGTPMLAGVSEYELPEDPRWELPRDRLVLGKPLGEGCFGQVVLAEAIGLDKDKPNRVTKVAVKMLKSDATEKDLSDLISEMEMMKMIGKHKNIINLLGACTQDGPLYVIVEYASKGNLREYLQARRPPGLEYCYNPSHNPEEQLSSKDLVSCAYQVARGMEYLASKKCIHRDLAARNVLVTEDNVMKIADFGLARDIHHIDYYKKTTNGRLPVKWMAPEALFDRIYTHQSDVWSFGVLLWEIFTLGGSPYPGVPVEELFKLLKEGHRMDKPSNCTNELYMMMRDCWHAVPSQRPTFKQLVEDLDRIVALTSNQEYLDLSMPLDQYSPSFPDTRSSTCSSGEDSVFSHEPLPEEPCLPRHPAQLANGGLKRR
# EPHB1 = EPHB1 (UniProt P54762); assay: as above
# Hck = Hck (UniProt P08631); assay: as above
# Fyn = Fyn (UniProt P06241); assay: as above
# Sequence of Fyn (P06241 whole entry, looked up): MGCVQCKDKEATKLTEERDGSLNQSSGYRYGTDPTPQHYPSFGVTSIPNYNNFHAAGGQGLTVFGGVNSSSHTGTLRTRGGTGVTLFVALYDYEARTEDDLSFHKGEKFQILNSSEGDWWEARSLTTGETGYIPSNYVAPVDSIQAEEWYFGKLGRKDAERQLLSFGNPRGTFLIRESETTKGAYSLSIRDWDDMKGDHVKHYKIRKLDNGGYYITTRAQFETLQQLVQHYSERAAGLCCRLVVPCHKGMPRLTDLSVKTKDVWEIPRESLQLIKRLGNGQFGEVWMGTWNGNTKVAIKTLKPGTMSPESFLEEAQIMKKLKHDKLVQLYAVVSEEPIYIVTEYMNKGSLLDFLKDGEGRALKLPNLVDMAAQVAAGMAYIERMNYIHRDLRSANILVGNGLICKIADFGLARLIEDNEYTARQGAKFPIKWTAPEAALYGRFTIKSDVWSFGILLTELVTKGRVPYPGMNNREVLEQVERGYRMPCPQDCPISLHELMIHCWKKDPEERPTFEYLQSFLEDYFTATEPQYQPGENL
# Fes = Fes (UniProt P07332); assay: as above
# Sequence of Fes (P07332 whole entry, looked up): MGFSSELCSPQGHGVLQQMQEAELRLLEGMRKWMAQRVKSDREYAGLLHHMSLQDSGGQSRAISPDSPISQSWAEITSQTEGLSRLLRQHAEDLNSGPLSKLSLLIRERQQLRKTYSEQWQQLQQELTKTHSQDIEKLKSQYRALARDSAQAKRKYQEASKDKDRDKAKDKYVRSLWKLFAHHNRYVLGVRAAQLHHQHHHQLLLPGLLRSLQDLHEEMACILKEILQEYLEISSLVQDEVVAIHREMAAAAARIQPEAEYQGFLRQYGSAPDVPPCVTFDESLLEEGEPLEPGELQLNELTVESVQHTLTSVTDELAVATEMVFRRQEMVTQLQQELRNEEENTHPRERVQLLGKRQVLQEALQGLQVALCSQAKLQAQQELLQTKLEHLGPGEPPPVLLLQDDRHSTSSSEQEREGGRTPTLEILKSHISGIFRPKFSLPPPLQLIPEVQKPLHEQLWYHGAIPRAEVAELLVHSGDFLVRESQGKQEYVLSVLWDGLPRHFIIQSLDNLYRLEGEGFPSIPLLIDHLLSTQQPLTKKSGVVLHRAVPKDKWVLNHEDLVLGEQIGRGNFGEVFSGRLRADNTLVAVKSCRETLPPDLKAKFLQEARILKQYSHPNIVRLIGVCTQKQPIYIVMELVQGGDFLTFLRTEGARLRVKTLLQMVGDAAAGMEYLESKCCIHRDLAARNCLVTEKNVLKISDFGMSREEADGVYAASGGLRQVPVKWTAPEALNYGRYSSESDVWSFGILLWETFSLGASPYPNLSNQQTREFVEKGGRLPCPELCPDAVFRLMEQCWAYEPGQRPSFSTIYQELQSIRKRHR
# MERTK = MERTK (UniProt Q12866); assay: as above
# Sequence of MERTK (Q12866 whole entry, looked up): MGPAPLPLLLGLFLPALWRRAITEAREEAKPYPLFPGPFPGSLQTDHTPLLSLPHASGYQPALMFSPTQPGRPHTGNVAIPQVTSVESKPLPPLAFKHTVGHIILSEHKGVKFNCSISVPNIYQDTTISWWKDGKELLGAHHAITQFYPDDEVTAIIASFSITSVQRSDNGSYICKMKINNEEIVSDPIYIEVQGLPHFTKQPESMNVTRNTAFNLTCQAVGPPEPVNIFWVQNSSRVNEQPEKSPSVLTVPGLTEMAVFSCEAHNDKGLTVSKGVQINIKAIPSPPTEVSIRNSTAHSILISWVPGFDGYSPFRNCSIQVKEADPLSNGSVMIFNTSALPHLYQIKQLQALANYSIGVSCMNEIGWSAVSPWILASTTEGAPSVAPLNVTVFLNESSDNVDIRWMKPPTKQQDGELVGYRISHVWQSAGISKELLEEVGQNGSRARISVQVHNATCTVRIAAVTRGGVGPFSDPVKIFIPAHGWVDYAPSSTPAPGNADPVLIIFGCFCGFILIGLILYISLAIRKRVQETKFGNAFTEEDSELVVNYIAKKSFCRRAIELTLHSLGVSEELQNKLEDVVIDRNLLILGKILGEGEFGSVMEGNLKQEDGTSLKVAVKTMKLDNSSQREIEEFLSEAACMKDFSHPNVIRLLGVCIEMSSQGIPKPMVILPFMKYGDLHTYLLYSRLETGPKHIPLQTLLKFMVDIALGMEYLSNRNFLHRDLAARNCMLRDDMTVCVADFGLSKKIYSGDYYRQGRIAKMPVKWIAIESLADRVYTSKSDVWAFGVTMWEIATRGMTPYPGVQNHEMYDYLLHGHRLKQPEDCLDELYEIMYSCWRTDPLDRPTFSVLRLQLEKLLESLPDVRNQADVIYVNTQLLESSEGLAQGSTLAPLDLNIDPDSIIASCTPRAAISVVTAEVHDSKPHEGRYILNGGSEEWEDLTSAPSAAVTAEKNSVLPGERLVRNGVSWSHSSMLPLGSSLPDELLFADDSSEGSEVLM
# c-Src = assay: as above
# FGFR3 = FGFR3 (UniProt P22607); assay: as above
# Sequence of FGFR3 (P22607 whole entry, looked up): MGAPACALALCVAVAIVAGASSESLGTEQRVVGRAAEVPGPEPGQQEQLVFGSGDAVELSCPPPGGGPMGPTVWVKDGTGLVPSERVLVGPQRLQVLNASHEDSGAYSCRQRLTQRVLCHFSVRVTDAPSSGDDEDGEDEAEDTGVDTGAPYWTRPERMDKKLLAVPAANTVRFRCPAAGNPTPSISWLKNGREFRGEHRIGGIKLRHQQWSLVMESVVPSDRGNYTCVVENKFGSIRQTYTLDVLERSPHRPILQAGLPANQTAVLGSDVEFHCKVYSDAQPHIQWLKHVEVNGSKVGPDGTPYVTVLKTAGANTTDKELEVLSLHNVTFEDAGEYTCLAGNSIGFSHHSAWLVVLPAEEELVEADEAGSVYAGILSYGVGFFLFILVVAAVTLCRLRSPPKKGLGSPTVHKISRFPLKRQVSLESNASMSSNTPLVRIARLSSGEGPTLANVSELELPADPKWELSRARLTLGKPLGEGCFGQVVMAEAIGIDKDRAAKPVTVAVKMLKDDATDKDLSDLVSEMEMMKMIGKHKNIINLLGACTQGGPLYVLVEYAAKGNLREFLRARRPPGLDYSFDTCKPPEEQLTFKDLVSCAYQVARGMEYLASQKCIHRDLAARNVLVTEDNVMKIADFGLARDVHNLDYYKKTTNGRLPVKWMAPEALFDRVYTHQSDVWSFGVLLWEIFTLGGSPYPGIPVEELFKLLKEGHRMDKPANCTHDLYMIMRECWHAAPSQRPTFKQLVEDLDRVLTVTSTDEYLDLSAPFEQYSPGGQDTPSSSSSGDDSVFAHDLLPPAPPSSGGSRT
# AncSZ = assay: as above
# EPHB2 = EPHB2 (UniProt P29323); assay: as above
# Sequence of EPHB2 (P29323 whole entry, looked up): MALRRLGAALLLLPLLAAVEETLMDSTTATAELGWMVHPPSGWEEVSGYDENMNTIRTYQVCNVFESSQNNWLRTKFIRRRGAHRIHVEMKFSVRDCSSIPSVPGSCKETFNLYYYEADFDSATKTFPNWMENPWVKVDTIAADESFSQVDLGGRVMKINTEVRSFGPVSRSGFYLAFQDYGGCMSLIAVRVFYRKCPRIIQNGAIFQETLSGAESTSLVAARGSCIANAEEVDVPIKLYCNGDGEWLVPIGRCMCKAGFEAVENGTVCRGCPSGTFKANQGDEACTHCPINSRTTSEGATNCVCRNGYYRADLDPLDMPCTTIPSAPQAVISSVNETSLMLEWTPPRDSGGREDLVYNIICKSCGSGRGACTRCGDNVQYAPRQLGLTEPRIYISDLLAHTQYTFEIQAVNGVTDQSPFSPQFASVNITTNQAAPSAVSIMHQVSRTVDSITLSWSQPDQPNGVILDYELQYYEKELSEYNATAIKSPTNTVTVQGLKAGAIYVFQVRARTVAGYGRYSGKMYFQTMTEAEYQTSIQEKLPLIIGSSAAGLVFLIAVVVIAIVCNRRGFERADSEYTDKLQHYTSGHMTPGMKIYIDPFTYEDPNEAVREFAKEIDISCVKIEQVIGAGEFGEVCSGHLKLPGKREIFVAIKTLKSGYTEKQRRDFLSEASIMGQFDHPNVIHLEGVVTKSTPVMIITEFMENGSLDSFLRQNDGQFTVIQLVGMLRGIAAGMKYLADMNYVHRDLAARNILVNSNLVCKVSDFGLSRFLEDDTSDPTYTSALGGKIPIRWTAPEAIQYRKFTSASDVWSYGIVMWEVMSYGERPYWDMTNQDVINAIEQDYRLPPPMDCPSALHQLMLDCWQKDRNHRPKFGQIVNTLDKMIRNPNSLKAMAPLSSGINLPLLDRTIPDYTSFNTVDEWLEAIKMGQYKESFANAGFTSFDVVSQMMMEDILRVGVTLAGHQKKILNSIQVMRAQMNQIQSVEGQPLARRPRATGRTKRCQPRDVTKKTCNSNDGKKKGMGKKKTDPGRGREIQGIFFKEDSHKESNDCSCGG
# Jak2 = Jak2 (UniProt O60674); assay: as above
# c-Abl (mouse) = assay: as above
# Fer (mouse) = assay: as above
# 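Wherever SH2 binding enrichment of the phosphorylated peptide, bacterial display is given: peptide library displayed on the E. coli surface as eCPX fusions, selected cells deep-sequenced, score is each peptide's frequency after selection divided by its frequency in the input.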
# 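Wherever phosphorylation enrichment, bacterial display is given: 11-residue human phosphosite peptides and single-mutation variants displayed on the E. coli surface, counted by deep sequencing, each peptide's frequency after selection divided by its frequency in the unselected input library; frequency after pTyr selection over input frequency; kinase dosed for 20-30% of maximal phosphorylation in three min.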
SH2 binding enrichment (SHP2-C SH2),SH2 binding enrichment (Grb2 SH2),SH2 binding enrichment (c-Src SH2),Sequence,phosphorylation enrichment (FGFR1),phosphorylation enrichment (EPHB1),phosphorylation enrichment (Hck),phosphorylation enrichment (Fyn),phosphorylation enrichment (Fes),phosphorylation enrichment (MERTK),phosphorylation enrichment (c-Src),phosphorylation enrichment (FGFR3),phosphorylation enrichment (AncSZ),phosphorylation enrichment (EPHB2),phosphorylation enrichment (Jak2),phosphorylation enrichment (c-Abl (mouse)),phosphorylation enrichment (Fer (mouse))
1.18,1.16,0.751,GSSKIYFLHPD [TLR5_Y108],2.48,0.529,1.21,1.84,0.844,2.89,1.83,1.85,0.849,0.624,0.714,0.642,0.403
0.829,0.801,0.577,NTILLYHIMAW [GPR143_Y157_S152N],3.19,5.65,1.56,0.8,1.62,4.42,1.27,3.15,1.52,3.9,2.07,1.25,0.89
0.658,0.911,0.514,KEAVLYPHLPP [SQSTM1_Y383_A381V],0.444,0.409,0.385,0.415,0.727,0.422,0.464,0.646,0.566,0.579,0.659,0.798,0.363
0.785,1.02,0.713,TAALWYIFSHT [ENG_Y612_YF],0.543,0.733,0.536,0.514,1.5,0.491,0.722,1.03,1.26,0.593,1.36,1.19,0.496
0.634,0.731,0.841,FDAHNYHPLPV [OAT_Y55_G51D_YF],10.7,0.635,1.1,0.501,0.734,1.09,0.556,5.97,0.731,0.762,1.02,0.807,1.13
0.654,0.746,0.596,LTERGYSFTTT [ACTB_Y198],0.504,0.472,0.432,0.456,0.758,0.408,0.46,0.78,0.837,0.492,0.756,0.586,0.554
1.39,1.5,1.36,CTTIHYNYRCN [TP53_Y234_M237R],0.502,0.594,0.497,0.498,1.03,0.465,0.522,0.713,0.797,0.54,0.832,0.726,0.455
0.752,0.677,0.497,ATKNDYWAMLA [WWOX_Y287_P282A],6.01,1.72,0.453,0.384,1,0.499,0.418,3.97,1.17,1.15,1.02,0.881,0.452
